Laboratory results as given in article PMC3315804 (Molecular Biology of the Cell, 2012).

T1: Y14D-Cav-1-YFP (phosphomimicking mutant) (human, UniProt Q03135 1-178, Y14D)
T1 sequence: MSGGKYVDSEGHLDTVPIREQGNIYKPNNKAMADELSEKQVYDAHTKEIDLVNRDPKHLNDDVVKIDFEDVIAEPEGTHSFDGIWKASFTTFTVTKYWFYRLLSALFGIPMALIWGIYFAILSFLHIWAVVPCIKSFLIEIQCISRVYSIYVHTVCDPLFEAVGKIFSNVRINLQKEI

B1: WT-eNOS-CFP, expressed in HEK cells (enzyme)
chain: MGNLKSVAQEPGPPCGLGLGLGLGLCGKQGPATPAPEPSRAPASLLPPAPEHSPPSSPLTQPPEGPKFPRVKNWEVGSITYDTLSAQAQQDGPCTPRRCLGSLVFPRKLQGRPSPGPPAPEQLLSQARDFINQYYSSIKRSGSQAHEQRLQEVEAEVAATGTYQLRESELVFGAKQAWRNAPRCVGRIQWGKLQVFDARDCRSAQEMFTYICNHIKYATNRGNLRSAITVFPQRCPGRGDFRIWNSQLVRYAGYRQQDGSVRGDPANVEITELCIQHGWTPGNGRFDVLPLLLQAPDDPPELFLLPPELVLEVPLEHPTLEWFAALGLRWYALPAVSNMLLEIGGLEFPAAPFSGWYMSTEIGTRNLCDPHRYNILEDVAVCMDLDTRTTSSLWKDKAAVEINVAVLHSYQLAKVTIVDHHAATASFMKHLENEQKARGGCPADWAWIVPPISGSLTPVFHQEMVNYFLSPAFRYQPDPWKGSAAKGTGITRKKTFKEVANAVKISASLMGTVMAKRVKATILYGSETGRAQSYAQQLGRLFRKAFDPRVLCMDEYDVVSLEHETLVLVVTSTFGNGDPPENGESFAAALMEMSGPYNSSPRPEQHKSYKIRFNSISCSDPLVSSWRRKRKESSNTDSAGALGTLRFCVFGLGSRAYPHFCAFARAVDTRLEELGGERLLQLGQGDELCGQEEAFRGWAQAAFQAACETFCVGEDAKAAARDIFSPKRSWKRQRYRLSAQAEGLQLLPGLIHVHRRKMFQATIRSVENLQSSKSTRATILVRLDTGGQEGLQYQPGDHIGVCPPNRPGLVEALLSRVEDPPAPTEPVAVEQLEKGSPGGPPPGWVRDPRLPPCTLRQALTFFLDITSPPSPQLLRLLSTLAEEPREQQELEALSQDPRRYEEWKWFRCPTLLEVLEQFPSVALPAPLLLTQLPLLQPRYYSVSSAPSTHPGEIHLTVAVLAYRTQDGLGPLHYGVCSTWLSQLKPGDPVPCFIRGAPSFRLPPDPSLPCILVGPGTGIAPFRGFWQERLHDIESKGLQPTPMTLVFGCRCSQLDHLYRDEVQNAQQRGVFGRVLTAFSREPDNPKTYVQDILRTELAAEVHRVLCLERGHMFVCGDVTMATNVLQTVQRILATEGDMELDEAGDVIGVLRDQQRYHEDIFGLTLRTQEVTSRIRTQSFSLQERQLRGAVPWAFDPPGSDTNSP

Tests used:
[1] = target: Y14D-Cav-1-YFP (phosphomimicking mutant) (human) (UniProt Q03135); assay: co-IP
[2] = target: T1, Y14D-Cav-1-YFP (phosphomimicking mutant); assay: co-IP

Molecule	fold binding against WT-eNOS with WT-Cav-1 [1] [fold]	fold binding against WT-eNOS with WT-Cav-1 [2] [fold]
eNOS-S1177D-CFP (phosphomimicking mutant) (from UniProt P29474-1 1-1203) (enzyme)	4.2	
B1		4.2
